Assay results taken from PMC7537338 (2020).
Where no end group is shown, it is not given here.

What was measured:
[1] = molecular target: T1, mouse CD47-IgV-Domain-hIg fusion protein (mouse, UniProt Q61735 19-140); assay: FACS; competition with mouse SIRPα on CHO cells
T1 chain: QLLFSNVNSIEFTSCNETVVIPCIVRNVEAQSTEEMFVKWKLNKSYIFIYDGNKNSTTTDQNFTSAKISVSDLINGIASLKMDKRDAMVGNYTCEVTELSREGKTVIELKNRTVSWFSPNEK

[2] = molecular target: human CD47-IgV-Domain-hIg fusion protein (human, UniProt Q08722 19-141); assay: FACS; competition with human SIRPα on CHO cells
human CD47-IgV-Domain-hIg fusion protein, sequence (Q08722 19-141): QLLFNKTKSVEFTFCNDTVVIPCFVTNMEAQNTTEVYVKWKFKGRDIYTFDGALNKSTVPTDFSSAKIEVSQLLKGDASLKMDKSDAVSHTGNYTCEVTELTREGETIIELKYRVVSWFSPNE

B1: pep-20-D12 (peptide)
chain: AWSATWSNYWRH
modifications: also: three D-amino acid residues substituted at N- and C-terminal, places not given here
- IC50 [1]: 18.2 µM
- IC50 [2]: 12.1 µM
